Tests used:
[1] = tested on: rats treated with the Cacna2d1 vector; assay: Withdrawal thresholds in rats overexpressing Cacna2d1 (lentiviral vector); type: in vivo, rat; conditions: for pain hypersensitivity induced by Cacna2d1 overexpression (tactile and pressure withdrawal thresholds): Cacna2d1 vector rats, AP5, peptide, gabapentin intrathecal, memantine systemic
[2] = tested on: Cacna2d1 KO mice; assay: Nerve injury-induced pain hypersensitivity in Cacna2d1 KO mice; type: in vivo, mouse
Description: Conventional α2δ-1 KO mice (C57BL/6 genetic background) were generated as described previously (Muller et al., 2010). Two breeding pairs of α2δ-1^+/− mice were purchased from Medical Research Council (Harwell Didcot, Oxfordshire, UK), and α2δ-I^−/− mice and α2δ-1^+/+ (wild-type) littermates were obtained by breeding the heterozygous mice. The spared nerve injury (SNI) procedure […] was performed on both male and female mice (10-11 weeks of age). Under a surgical microscope, the left common peroneal and tibial nerves were ligated and sectioned, leaving the sural nerve intact. The sham procedure consisted of the same surgery without nerve ligation and sectioning.
Behavioral assessments of nociception: To detect tactile allodynia, von Frey filaments were applied to the animals' left hindpaws (ipsilateral to the nerve injury). The rats or mice were placed individually in suspended chambers on a mesh floor. […] Using the up-down method, the tactile stimulus that produced a 50% likelihood of a withdrawal response was calculated (Fuller-Bicer et al., 2009).
To quantify the mechanical nociceptive threshold in the rats and mice (Patel et al., 2013; Dolphin et al., 2012), the paw pressure tests were conducted on the hindpaw with an analgesiometer (Ugo Basile, Varese, Italy). […]

[3] = target: T1, α2δ-1-GluN1 interaction (Rattus norvegicus, UniProt P35439+Q00959); type: cell-based; conditions: HEK293; 0.01, 0.1, or 1 mM peptide
T1 construct: expressed in transfected cells; host or cells: HEK293

[4] = target: T2, α2δ-1-Cav2.2 interaction (Rattus norvegicus, UniProt P54290+Q02294); assay: Co-IP of α2δ-1 and Cav2.2 in spinal cord after intrathecal injection; type: in vivo; conditions: SNL and sham rats, intrathecal 1 μg, 60 min
T2 construct: from tissue; host or cells: rat dorsal spinal cord (L5-L6) membrane extracts after intrathecal injection
Description: Whole-cell IBa was elicited by a depolarizing pulse to 0 mV for 200 ms from a holding potential of −90 mV. […] Data are means±s.e.m. The numbers of cells recorded in each group are indicated in parentheses (cells from 4 separate experiments). […] The dorsal spinal cord at the L5 and L6 level was removed 60 min after intrathecal injection of α2δ-1Tat peptide (1 μg) or control peptide (1 μg). Membrane proteins were immunoprecipitated first with a rabbit anti-α2δ-1 or anti-IgG antibody. Western immunoblotting was performed by using an anti-Cav2.2 antibody. S, sham; L, SNL; C, control peptide; P, α2δ-1Tat peptide. Data are means±s.e.m.
Coimmunoprecipitation using spinal cord tissue membrane extracts: The dorsal quadrants of rat spinal cords at the L5 and L6 levels or the frozen lumbar spinal cord tissues from four human donors (2 males and 2 females, age ranged 18-42 years, post-mortem interval of 17-29 h; supplied by University of Maryland Brain and Tissue Bank) were dissected and homogenized in ice-cold hypotonic buffer (20 mM Tris [pH 7.4], 1 mM CaCl2, 1 mM MgCl2, and protease inhibitors) for membrane preparation. The nuclei and unbroken cells were removed by centrifugation at 300×g for 5 min. The supernatant was centrifuged for 20 min at 21,000×g. […]

[5] = target: T3, NMDARs of hippocampal CA1 pyramidal neurons (Mus musculus, UniProt O08532+P35438); assay: Puff NMDAR currents of hippocampal CA1 neurons, oxygen-glucose deprivation (OGD); type: cell-based; conditions: gabapentin 30 or 100 μM, 60 min
T3 construct: from tissue; host or cells: mouse brain slices (hippocampal CA1, hypothalamic PVN, brain tissue membrane extracts)
Description: Brain slice preparation and recording. The tissues containing the hippocampus were sliced sagittally (300 μm thick) using a vibratome. […] NMDAR currents of pyramidal neurons in the hippocampal CA1 region were recorded by puff application of 100 μM NMDA directly to the recorded neuron at a holding potential of −60 mV.

T2 sequence (P54290 25-944 limits assumed): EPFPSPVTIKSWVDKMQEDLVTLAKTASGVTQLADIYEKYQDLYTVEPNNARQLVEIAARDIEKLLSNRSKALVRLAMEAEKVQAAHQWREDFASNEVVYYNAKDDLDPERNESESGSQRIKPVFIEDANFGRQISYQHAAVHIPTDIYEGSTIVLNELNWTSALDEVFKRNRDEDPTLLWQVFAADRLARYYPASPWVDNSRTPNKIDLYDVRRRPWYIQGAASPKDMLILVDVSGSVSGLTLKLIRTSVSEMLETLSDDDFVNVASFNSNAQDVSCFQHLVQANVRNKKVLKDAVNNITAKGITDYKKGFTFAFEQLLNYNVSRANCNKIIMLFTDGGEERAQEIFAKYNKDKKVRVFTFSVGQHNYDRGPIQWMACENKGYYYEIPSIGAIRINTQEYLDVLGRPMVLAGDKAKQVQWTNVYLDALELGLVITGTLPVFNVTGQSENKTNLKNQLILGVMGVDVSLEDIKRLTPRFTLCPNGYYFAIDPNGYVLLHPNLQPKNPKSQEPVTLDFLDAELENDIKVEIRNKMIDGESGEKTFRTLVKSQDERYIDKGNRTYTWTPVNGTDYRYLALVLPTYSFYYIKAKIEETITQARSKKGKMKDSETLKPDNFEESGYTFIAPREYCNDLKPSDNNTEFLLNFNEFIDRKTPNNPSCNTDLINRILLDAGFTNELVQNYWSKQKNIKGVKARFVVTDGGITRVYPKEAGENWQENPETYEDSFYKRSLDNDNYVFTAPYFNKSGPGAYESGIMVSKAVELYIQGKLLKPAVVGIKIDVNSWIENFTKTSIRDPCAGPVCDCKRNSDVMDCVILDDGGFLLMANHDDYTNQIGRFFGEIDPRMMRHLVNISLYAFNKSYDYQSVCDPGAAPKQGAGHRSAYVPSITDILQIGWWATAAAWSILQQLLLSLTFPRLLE
T2 sequence (Q02294 whole entry): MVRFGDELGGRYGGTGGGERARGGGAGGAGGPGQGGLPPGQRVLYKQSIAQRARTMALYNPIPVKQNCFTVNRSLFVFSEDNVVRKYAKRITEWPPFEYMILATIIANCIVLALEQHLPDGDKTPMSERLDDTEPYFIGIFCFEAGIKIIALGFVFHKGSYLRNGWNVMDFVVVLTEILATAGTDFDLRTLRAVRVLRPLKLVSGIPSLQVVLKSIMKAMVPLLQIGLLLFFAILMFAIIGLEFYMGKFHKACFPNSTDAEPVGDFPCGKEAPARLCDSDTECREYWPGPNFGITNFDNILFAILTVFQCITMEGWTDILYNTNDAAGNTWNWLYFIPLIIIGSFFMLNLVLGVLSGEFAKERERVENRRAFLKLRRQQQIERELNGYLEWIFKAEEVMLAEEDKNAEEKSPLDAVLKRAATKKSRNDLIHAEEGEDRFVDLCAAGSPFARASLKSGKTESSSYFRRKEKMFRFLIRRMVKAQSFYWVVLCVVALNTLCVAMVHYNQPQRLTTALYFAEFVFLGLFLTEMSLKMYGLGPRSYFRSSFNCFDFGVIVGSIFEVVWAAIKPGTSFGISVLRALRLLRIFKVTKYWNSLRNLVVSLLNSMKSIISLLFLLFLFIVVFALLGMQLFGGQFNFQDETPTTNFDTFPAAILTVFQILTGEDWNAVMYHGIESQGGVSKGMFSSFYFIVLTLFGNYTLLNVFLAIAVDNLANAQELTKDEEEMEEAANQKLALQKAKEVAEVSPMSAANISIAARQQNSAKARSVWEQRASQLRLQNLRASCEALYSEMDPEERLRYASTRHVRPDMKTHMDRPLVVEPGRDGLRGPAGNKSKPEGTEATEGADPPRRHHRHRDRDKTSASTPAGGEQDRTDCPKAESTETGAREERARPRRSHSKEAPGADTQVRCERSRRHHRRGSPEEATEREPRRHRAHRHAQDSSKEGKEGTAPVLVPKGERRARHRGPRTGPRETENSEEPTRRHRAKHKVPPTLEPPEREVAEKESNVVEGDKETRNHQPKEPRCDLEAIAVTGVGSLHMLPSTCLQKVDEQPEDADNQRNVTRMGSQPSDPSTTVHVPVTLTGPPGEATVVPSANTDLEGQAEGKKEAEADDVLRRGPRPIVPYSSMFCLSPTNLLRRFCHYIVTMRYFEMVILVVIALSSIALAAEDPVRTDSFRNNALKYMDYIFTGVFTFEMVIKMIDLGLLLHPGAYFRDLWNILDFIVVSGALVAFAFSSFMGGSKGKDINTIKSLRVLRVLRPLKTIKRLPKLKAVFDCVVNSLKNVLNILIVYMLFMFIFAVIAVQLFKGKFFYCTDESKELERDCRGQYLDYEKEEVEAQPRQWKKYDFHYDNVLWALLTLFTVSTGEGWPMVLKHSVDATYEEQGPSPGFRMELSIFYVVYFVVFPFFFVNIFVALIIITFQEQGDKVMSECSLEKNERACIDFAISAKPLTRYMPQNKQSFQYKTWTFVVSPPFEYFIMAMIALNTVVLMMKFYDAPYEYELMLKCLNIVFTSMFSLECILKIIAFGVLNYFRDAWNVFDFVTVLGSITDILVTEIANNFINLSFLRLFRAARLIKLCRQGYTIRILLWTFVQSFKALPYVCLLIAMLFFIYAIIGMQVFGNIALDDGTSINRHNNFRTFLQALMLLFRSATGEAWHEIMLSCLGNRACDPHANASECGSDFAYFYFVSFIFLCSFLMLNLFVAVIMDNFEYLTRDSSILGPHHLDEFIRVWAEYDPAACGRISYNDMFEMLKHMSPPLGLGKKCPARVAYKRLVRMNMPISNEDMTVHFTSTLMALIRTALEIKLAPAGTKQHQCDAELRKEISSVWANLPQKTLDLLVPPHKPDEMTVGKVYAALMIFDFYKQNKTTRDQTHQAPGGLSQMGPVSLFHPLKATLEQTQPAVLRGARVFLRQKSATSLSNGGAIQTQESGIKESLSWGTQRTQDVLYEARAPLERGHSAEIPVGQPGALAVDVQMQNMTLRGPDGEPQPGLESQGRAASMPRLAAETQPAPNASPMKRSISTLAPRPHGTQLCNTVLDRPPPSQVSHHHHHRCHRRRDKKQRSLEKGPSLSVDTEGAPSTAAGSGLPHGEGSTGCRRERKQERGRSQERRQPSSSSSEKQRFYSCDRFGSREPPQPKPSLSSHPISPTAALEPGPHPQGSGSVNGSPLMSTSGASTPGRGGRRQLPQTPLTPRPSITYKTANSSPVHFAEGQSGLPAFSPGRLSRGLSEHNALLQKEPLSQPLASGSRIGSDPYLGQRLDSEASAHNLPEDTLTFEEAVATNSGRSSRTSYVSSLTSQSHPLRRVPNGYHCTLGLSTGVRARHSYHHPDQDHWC
T3 sequence (O08532 25-956 limits assumed, other chains not shown): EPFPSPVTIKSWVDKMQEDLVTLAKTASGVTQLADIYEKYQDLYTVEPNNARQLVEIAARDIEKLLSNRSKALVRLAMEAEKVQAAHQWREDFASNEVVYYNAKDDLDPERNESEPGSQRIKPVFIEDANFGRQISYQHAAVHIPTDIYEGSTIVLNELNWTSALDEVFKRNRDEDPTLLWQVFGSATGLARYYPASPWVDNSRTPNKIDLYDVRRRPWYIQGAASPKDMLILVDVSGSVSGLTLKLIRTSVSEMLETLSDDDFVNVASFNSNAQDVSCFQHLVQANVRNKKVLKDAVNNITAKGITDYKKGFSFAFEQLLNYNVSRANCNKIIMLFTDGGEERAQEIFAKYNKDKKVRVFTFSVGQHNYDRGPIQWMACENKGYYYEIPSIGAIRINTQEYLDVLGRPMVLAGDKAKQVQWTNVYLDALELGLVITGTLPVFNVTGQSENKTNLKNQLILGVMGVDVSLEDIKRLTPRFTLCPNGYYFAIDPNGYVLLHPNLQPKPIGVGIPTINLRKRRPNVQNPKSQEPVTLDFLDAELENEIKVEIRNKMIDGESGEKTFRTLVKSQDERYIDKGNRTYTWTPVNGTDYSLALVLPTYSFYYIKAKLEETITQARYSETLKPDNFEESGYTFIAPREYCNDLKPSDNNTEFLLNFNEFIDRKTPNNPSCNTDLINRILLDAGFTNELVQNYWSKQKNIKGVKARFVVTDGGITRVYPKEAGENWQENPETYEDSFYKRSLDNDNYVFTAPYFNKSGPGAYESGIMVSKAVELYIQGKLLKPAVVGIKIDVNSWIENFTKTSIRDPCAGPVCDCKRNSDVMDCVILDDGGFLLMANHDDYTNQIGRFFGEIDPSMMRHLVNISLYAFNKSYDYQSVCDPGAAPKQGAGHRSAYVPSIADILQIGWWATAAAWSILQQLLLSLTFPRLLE

Sequence: YGRKKRRQRRRVSGLNPSLWSIFGLQFILLWLVSGSRHYLW (a2d1 peptide) [α2δ-1Tat peptide, 30-amino-acid peptide mimicking the C-terminal domain of α2δ-1 fused to the cell-penetrating peptide Tat]
- pain hypersensitivity induced by Cacna2d1 overexpression (tactile and pressure withdrawal thresholds) [1]: attenuates
- pain hypersensitivity induced by Cacna2d1 overexpression (tactile and pressure withdrawal thresholds) ([1]; listed as a2d-1Tat peptide): similarly reversed
- withdrawal thresholds in rats treated with the control vector ([1]; control vector rats, intrathecal injection): had no effect
- nerve injury-induced pain hypersensitivity in Cacna2d1 KO mice [2]: had no effect
- direct interaction between α2δ-1 and GluN1 [3]: disrupted
- interaction between α2δ-1 and Cav2.2 proteins in the spinal cord tissue [4]: lack of an effect
- interaction between α2δ-1 and Cav2.2 proteins in the spinal cord tissue ([4]; listed as α2δ-1 Tat peptide): had no effect
- OGD-induced increase in the puff NMDAR currents ([5]; 5 min OGD, peptides 1 μM): failed to increase
- basal puff NMDAR currents of hippocampal CA1 pyramidal neurons ([5]; before OGD, peptide 1 μM): had no effect

From US11787839B2, “Targeting α2δ-1-bound glutamate receptors for treating diseases and disorders” (Board of Regents, The University of Texas System, priority 2017, dated 2023)
